Data published in doi:10.1101/2020.08.27.268672 (bioRxiv, 2020).

Columns and labels:
[1] = molecular target: Rel^NTD (purified, in solution) (Bacillus subtilis 168, UniProt O54408 1-391); assay: ITC
SEC-MALS = molecular target: the molecule itself; assay: SEC-MALS

Chain of Rel^NTD (purified, in solution) (O54408 1-391): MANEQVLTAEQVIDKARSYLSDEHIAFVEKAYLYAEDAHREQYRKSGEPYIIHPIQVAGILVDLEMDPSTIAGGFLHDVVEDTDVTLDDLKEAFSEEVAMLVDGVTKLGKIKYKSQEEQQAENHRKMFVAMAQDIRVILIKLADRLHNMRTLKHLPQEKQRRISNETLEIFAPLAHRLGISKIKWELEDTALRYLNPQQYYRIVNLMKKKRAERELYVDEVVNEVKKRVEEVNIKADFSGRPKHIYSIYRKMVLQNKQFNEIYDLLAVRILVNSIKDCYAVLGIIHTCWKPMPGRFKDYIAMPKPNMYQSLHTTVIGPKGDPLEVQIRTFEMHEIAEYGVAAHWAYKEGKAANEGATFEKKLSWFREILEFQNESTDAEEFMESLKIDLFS

B1: DarB (natural protein, Bacillus subtilis 168)
chain: ISLQSDQLLEATVGQFMIEADKVAHVQVGNNLEHALLVLTKTGYTAIPVLDPSYRLHGLIGTNMIMNSIFGLERIEFEKLDQITVEEVMLTDIPRLHINDPIMKGFGMVINNGFVCVENDEQVFEGIFTRRVVLKELNKHIRSLNK
- Kd [1]: 650 nM
- stoichiometry N [1]: 1
- stoichiometry N (SEC-MALS): 2
